This passage reports stoichiometry N results from paper PMC11480323.

The target of the assay is Cas7 of the type I-F Cas8-HNH system from Selenomonas sp. isolate RGIG9219 (Selenomonas sp. isolate RGIG9219). Nature of the assay: cryo-EM structure; Cas8-HNH Cascade-crRNA ribonucleoprotein complex in the target-free state, 3.6 Å; subunits co-expressed in E. coli with crRNA and purified as one complex.

Substance “Cas7 of the type I-F Cas8-HNH system from Selenomonas sp. isolate RGIG9219 (natural protein)” had a stoichiometry N of 6.
